According to article PMC3017643 (Journal of molecular biology, 2010):

Assays:
[1] = molecular target: full-length β-catenin (residues 1–781) (murine) (UniProt Q02248); assay: ITC
[2] = molecular target: β-catenin 1-781 (UniProt Q02248); assay: isothermal titration calorimetry; conditions: reference: non-phosphorylated Lef-1(1–63); sites S40
[3] = molecular target: T1, full-length β-catenin (residues 1–781) (murine, UniProt Q02248 1-781); assay: ITC
T1 sequence (looked up): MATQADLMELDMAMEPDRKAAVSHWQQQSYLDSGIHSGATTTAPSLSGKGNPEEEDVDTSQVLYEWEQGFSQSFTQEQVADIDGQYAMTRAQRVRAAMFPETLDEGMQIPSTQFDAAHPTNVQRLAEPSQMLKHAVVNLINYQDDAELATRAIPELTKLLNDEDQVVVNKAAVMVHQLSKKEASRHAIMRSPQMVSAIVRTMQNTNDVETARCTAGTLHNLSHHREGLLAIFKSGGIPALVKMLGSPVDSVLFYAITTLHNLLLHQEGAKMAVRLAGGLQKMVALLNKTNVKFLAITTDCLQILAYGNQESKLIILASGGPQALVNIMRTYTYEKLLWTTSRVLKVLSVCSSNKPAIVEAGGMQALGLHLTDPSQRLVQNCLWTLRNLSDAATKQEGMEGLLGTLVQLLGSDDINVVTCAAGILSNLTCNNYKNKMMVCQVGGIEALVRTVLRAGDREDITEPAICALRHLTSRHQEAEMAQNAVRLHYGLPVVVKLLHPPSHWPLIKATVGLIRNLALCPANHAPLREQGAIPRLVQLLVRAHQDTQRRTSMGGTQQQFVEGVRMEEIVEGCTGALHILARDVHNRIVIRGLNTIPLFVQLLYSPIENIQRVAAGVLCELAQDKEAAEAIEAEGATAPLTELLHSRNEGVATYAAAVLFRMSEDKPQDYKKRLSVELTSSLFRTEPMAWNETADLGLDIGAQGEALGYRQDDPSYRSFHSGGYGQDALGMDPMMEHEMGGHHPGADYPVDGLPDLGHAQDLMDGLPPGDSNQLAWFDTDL

“CK2-phosphorylated murine Lef-1(1–63), HPLC-separated, as used for ITC (from UniProt P27782 1-63) (domain or fragment)” was tested, and the Kd [1] was 35 nM and the dH [1] was -12.3 kcal/mol.

In the case of “Lef-1 1-63 (from UniProt P27782) CK2-phosphorylated, HPLC-purified pLef-1(1–63)”, the KD [2] is reported as “same; reference 23 (± 3) × 10−9”.

“murine Lef-1(1–63), non-phosphorylated, as used for ITC (from UniProt P27782 1-63) (domain or fragment)” was tested, and the dH [1] was -13.1 kcal/mol.

B1: human TCF4 β-catenin binding region, residues 1–57 (domain or fragment, UniProt Q9NQB0 1-57, looked up)
chain: MPQLNGGGGDDLGANDELISFKDEGEQEEKSSENSSAERDLADVKSSLVNESETNQN
For B1, the Kd [3] was 16 nM and the dH [3] was -12.5 ± 0.1 kcal/mol.
